# Target: U2AF65 (Homo sapiens) (UniProt P26368)
# Experiment: EMSA
# Settings: Gel shift with constant 5'-32P RNA and varying U2AF65, triplicate; buffer, salt, pH and temperature not given (as previously described, ref 49)
# U2AF65 (Homo sapiens), sequence (P26368 whole entry, one chain of several): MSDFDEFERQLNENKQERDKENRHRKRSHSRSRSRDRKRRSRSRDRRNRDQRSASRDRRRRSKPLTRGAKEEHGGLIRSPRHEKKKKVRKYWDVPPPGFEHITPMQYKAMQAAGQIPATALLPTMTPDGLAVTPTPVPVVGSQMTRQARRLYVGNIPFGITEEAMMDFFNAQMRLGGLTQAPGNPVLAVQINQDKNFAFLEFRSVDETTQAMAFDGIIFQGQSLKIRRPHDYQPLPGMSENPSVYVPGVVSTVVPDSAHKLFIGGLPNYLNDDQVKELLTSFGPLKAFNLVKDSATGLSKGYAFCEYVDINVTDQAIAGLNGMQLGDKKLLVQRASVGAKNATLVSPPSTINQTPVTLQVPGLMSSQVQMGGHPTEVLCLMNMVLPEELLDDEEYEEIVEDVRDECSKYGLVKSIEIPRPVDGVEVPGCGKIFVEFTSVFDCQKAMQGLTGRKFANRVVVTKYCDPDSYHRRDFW
row,Sequence,Kd
1,CAAAGGCGUUGGUUUUGUUUCCACAG [INSR intron 10 PY tract],8.8 µM
2,CCGCCCACCCCCUCCCCUCACCGCAG [BRUNOL4 intron 9 PY tract],3.4 µM
3,GCCCUGACCCCUUCCACCCGCUGCAG [LCAT intron 4 PY tract],1.9 µM
4,GCCCUGACCCCUUUUUUUUGCUGCAG [LCATmut intron 4 PY tract],0.12 µM
5,UAAUUCUUUUUUUCUUUCUGCCCUAG [SR140 intron 9 PY tract],0.03 µM
6,UCACCACUCCUUUCUCUUUCAUUCAG [U2AF2 intron 6 PY tract],0.08 µM
7,UUCGUGCUGACCCUGUCCCGUAUUAGUCCACAGCUGCA [ADMLmut PY tract],15.8 µM
8,UUCGUGCUGACCCUGUCCCUUUUUUUUCCACAGCUGCA [ADML PY tract],0.12 µM

# Same assay, conditions: estimated (asterisk), saturation not reached; Gel shift with constant 5'-32P RNA and varying U2AF65, triplicate; buffer, salt, pH and temperature not given (as previously described, ref 49)
row,Sequence,Kd
1,CCCUGGCUCACUCCCCUGCCCUGCAG [ITGB4 intron 31 PY tract],52 µM

# Same assay, conditions: estimated (asterisk); no detectable binding at concentrations tested; Gel shift with constant 5'-32P RNA and varying U2AF65, triplicate; buffer, salt, pH and temperature not given (as previously described, ref 49)
row,Sequence,Kd
1,CAUGUGCUCGCUGCCUGCUAAUUAAG [MBNL1 intron 6 PY tract],100 µM
